Measured values as given in US20120172293A1 (Takeda / Millennium, published 2012).
Starred links: 1 amine or outer side, 2 acyl side, 3 side chain; linkers in the order of their positions; H or OH if unused. Non-standard residues stand in square brackets, D forms with d. No end group written: not given here. *: point of attachment. Ala(piperidin-4-yl) = O=C([C@H](CC1CCN([*:3])CC1)N[*:1])[*:2]; Imidazole4carbonyl = O=C(c1cnc[nH]1)*; Arg(Me) = CNC(=N)NCCC[C@H](N)C(=O)O; hArg = N=C(N)NCCCC[C@H](N)C(=O)O; 4Pal = N[C@@H](Cc1ccncc1)C(=O)O; Cha = N[C@@H](CC1CCCCC1)C(=O)O; Isonicotinoyl = O=C(c1ccncc1)*; Suc = O=C(CCC(=O)[*:2])[*:1]; Iva = CC[C@](C)(N)C(=O)O; Nle = CCCC[C@H](N)C(=O)O; Aib = CC(C)(N)C(=O)O; Ahx = NCCCCCC(=O)O

B1: Ac-[D-Pro24, Arg(Me)25,30, Pya(4)26, Cha27,36, Aib28,31]-PYY(23-36) (peptide)
peptide: Ac-S[dP][Arg(Me)][4Pal][Cha][Aib]N[Arg(Me)][Aib]TRQR[Cha]-NH2
SMILES: CNC(=N)NCCC[C@H](NC(=O)[C@H](CC(N)=O)NC(=O)C(C)(C)NC(=O)[C@H](CC1CCCCC1)NC(=O)[C@H](Cc1ccncc1)NC(=O)[C@H](CCCNC(=N)NC)NC(=O)[C@H]1CCCN1C(=O)[C@H](CO)NC(C)=O)C(=O)NC(C)(C)C(=O)N[C@H](C(=O)N[C@@H](CCCNC(=N)N)C(=O)N[C@@H](CCC(N)=O)C(=O)N[C@@H](CCCNC(=N)N)C(=O)N[C@@H](CC1CCCCC1)C(N)=O)[C@@H](C)O
B2: Ac-[D-Pro24, Iva25, Pya(4)26, Cha27,36, Aib28,31, Har30]-PYY(23-36) (peptide)
peptide: Ac-S[dP][Iva][4Pal][Cha][Aib]N[hArg][Aib]TRQR[Cha]-NH2
SMILES: CC[C@](C)(NC(=O)[C@H]1CCCN1C(=O)[C@H](CO)NC(C)=O)C(=O)N[C@@H](Cc1ccncc1)C(=O)N[C@@H](CC1CCCCC1)C(=O)NC(C)(C)C(=O)N[C@@H](CC(N)=O)C(=O)N[C@@H](CCCCNC(=N)N)C(=O)NC(C)(C)C(=O)N[C@H](C(=O)N[C@@H](CCCNC(=N)N)C(=O)N[C@@H](CCC(N)=O)C(=O)N[C@@H](CCCNC(=N)N)C(=O)N[C@@H](CC1CCCCC1)C(N)=O)[C@@H](C)O
B3: 4-Pyridinecarbonyl-[D-Pro24, Iva25, Pya(4)26, Cha27,36, Aib28,31, Lys30]-PYY(23-36) (peptide)
peptide: Isonicotinoyl-S[dP][Iva][4Pal][Cha][Aib]NK[Aib]TRQR[Cha]-NH2
SMILES: CC[C@](C)(NC(=O)[C@H]1CCCN1C(=O)[C@H](CO)NC(=O)c1ccncc1)C(=O)N[C@@H](Cc1ccncc1)C(=O)N[C@@H](CC1CCCCC1)C(=O)NC(C)(C)C(=O)N[C@@H](CC(N)=O)C(=O)N[C@@H](CCCCN)C(=O)NC(C)(C)C(=O)N[C@H](C(=O)N[C@@H](CCCNC(=N)N)C(=O)N[C@@H](CCC(N)=O)C(=O)N[C@@H](CCCNC(=N)N)C(=O)N[C@@H](CC1CCCCC1)C(N)=O)[C@@H](C)O
B4: Ac-[D-Pro24, Iva25,28, Pya(4)26, Cha27,36, Lys30, Aib31]-PYY(23-36) (peptide)
peptide: Ac-S[dP][Iva][4Pal][Cha][Iva]NK[Aib]TRQR[Cha]-NH2
SMILES: CC[C@](C)(NC(=O)[C@H](CC1CCCCC1)NC(=O)[C@H](Cc1ccncc1)NC(=O)[C@](C)(CC)NC(=O)[C@H]1CCCN1C(=O)[C@H](CO)NC(C)=O)C(=O)N[C@@H](CC(N)=O)C(=O)N[C@@H](CCCCN)C(=O)NC(C)(C)C(=O)N[C@H](C(=O)N[C@@H](CCCNC(=N)N)C(=O)N[C@@H](CCC(N)=O)C(=O)N[C@@H](CCCNC(=N)N)C(=O)N[C@@H](CC1CCCCC1)C(N)=O)[C@@H](C)O
B5: [Acp23, D-Pro24, Pya(4)26, Cha27,36, Aib28,31, Lys30]-PYY(23-36) (peptide)
peptide: [Ahx][dP]R[4Pal][Cha][Aib]NK[Aib]TRQR[Cha]-NH2
modifications: not fully specified (N-terminus); printed as Ac-Acp-D-Pro-Arg-Pya(4)-Cha-Aib-Asn-Lys-Aib-Thr-Arg-Gln-Arg-Cha-NH2
B6: 4-Imidazolecarbonyl-[D-Pro24, Iva25, Pya(4)26, Cha27,30,36, Aib28,31]-PYY(23-36) (peptide)
peptide: Imidazole4carbonyl-S[dP][Iva][4Pal][Cha][Aib]N[Cha][Aib]TRQR[Cha]-NH2
SMILES: CC[C@](C)(NC(=O)[C@H]1CCCN1C(=O)[C@H](CO)NC(=O)c1cnc[nH]1)C(=O)N[C@@H](Cc1ccncc1)C(=O)N[C@@H](CC1CCCCC1)C(=O)NC(C)(C)C(=O)N[C@@H](CC(N)=O)C(=O)N[C@@H](CC1CCCCC1)C(=O)NC(C)(C)C(=O)N[C@H](C(=O)N[C@@H](CCCNC(=N)N)C(=O)N[C@@H](CCC(N)=O)C(=O)N[C@@H](CCCNC(=N)N)C(=O)N[C@@H](CC1CCCCC1)C(N)=O)[C@@H](C)O
B7: 4-Imidazolecarbonyl-[D-Pro24, Iva25, Pya(4)26, Cha27,36, Aib28,31, Lys30]-PYY(23-36) (peptide)
peptide: Imidazole4carbonyl-S[dP][Iva][4Pal][Cha][Aib]NK[Aib]TRQR[Cha]-NH2
SMILES: CC[C@](C)(NC(=O)[C@H]1CCCN1C(=O)[C@H](CO)NC(=O)c1cnc[nH]1)C(=O)N[C@@H](Cc1ccncc1)C(=O)N[C@@H](CC1CCCCC1)C(=O)NC(C)(C)C(=O)N[C@@H](CC(N)=O)C(=O)N[C@@H](CCCCN)C(=O)NC(C)(C)C(=O)N[C@H](C(=O)N[C@@H](CCCNC(=N)N)C(=O)N[C@@H](CCC(N)=O)C(=O)N[C@@H](CCCNC(=N)N)C(=O)N[C@@H](CC1CCCCC1)C(N)=O)[C@@H](C)O
B8: 3-Carboxypropionyl-[D-Pro24, Pya(4)26, Cha27,36, Aib28,31, Lys30]-PYY(24-36) (peptide)
peptide: Suc-[dP]R[4Pal][Cha][Aib]NK[Aib]TRQR[Cha]-NH2
SMILES: C[C@@H](O)[C@H](NC(=O)C(C)(C)NC(=O)[C@H](CCCCN)NC(=O)[C@H](CC(N)=O)NC(=O)C(C)(C)NC(=O)[C@H](CC1CCCCC1)NC(=O)[C@H](Cc1ccncc1)NC(=O)[C@H](CCCNC(=N)N)NC(=O)[C@H]1CCCN1C(=O)CCC(=O)O)C(=O)N[C@@H](CCCNC(=N)N)C(=O)N[C@@H](CCC(N)=O)C(=O)N[C@@H](CCCNC(=N)N)C(=O)N[C@@H](CC1CCCCC1)C(N)=O
B9: 4-Imidazolecarbonyl-[D-Pro24, Nle25, Pya(4)26, Cha27,36, Aib28,31, Lys30]-PYY(23-36) (peptide)
peptide: Imidazole4carbonyl-S[dP][Nle][4Pal][Cha][Aib]NK[Aib]TRQR[Cha]-NH2
SMILES: CCCC[C@H](NC(=O)[C@H]1CCCN1C(=O)[C@H](CO)NC(=O)c1cnc[nH]1)C(=O)N[C@@H](Cc1ccncc1)C(=O)N[C@@H](CC1CCCCC1)C(=O)NC(C)(C)C(=O)N[C@@H](CC(N)=O)C(=O)N[C@@H](CCCCN)C(=O)NC(C)(C)C(=O)N[C@H](C(=O)N[C@@H](CCCNC(=N)N)C(=O)N[C@@H](CCC(N)=O)C(=O)N[C@@H](CCCNC(=N)N)C(=O)N[C@@H](CC1CCCCC1)C(N)=O)[C@@H](C)O

What follows are binders tested against human Y2 receptor (human) (UniProt P49146) (assay: RBA: displacement of [125I]-PYY from hY2R/CHO membranes).
Sequence of human Y2 receptor (human) (P49146 whole entry): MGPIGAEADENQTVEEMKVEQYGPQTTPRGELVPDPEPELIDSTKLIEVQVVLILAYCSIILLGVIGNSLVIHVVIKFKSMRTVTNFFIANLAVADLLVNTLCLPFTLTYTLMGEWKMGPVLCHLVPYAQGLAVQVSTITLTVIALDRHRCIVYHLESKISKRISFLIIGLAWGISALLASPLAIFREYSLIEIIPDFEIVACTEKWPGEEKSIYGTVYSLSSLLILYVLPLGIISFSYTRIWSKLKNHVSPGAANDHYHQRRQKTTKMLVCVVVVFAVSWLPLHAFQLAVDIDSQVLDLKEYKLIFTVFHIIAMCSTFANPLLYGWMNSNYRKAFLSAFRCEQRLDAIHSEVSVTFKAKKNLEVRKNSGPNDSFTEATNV

Row | IC50 Ratio (IC50 compound/IC50 PYY(3-36)) | Binder
1 | 1.5 | B1
2 | 0.65 | B2
3 | 1 | B3
4 | 1.1 | B4
5 | 0.32 | B5
6 | 18 | Ac-S[dP][Ala(piperidin-4-yl)][4Pal][Cha][Aib]NK[Aib]TRQR[Cha]-NH2 (also: Ala(4Pip)25 D or L, not assigned, former peak isomer) [Ac-[D-Pro24, Ala(4Pip)25, Pya(4)26, Cha27,36, Aib28,31, Lys30]-PYY(23-36) former peak]
7 | 2.3 | B6
8 | 0.77 | B7
9 | 1.2 | B8
10 | 4.3 | Ac-S[dP][Ala(piperidin-4-yl)][4Pal][Cha][Aib]NK[Aib]TRQR[Cha]-NH2 (also: Ala(4Pip)25 D or L, not assigned, later peak isomer) [Ac-[D-Pro24, Ala(4Pip)25, Pya(4)26, Cha27,36, Aib28,31, Lys30]-PYY(23-36) later peak]
11 | 1.7 | B9
12 | 2.4 | Ac-S[dP][Iva][4Pal][Cha][Aib]N[Arg(Me)][Aib]TRQR[Cha]-NH2 [Ac-[D-Pro24, Iva25, Pya(4)26, Cha27,36, Aib28,31, Arg(Me)30]-PYY(23-36)]

The binders below were run against human Y2 receptor (human) (UniProt P49146) (assay: cell-based or functional assay).

Row | GBA EC50 Ratio ([35S]GTPγS binding) (EC50 compound/EC50 PYY(3-36)) | Binder
13 | 1.5 | B1
14 | 1 | B2
15 | 1.1 | B3
16 | 1 | B4
17 | 1.1 | B5
18 | 14 | Ac-S[dP][Ala(piperidin-4-yl)][4Pal][Cha][Aib]NK[Aib]TRQR[Cha]-NH2 (also: Ala(4Pip)25 D or L, not assigned, former peak isomer) [Ac-[D-Pro24, Ala(4Pip)25, Pya(4)26, Cha27,36, Aib28,31, Lys30]-PYY(23-36) former peak]
19 | 1.9 | B6
20 | 0.91 | B7
21 | 1.2 | B8
22 | 5.8 | Ac-S[dP][Ala(piperidin-4-yl)][4Pal][Cha][Aib]NK[Aib]TRQR[Cha]-NH2 (also: Ala(4Pip)25 D or L, not assigned, later peak isomer) [Ac-[D-Pro24, Ala(4Pip)25, Pya(4)26, Cha27,36, Aib28,31, Lys30]-PYY(23-36) later peak]
23 | 1.2 | B9
24 | 1.7 | Ac-S[dP][Iva][4Pal][Cha][Aib]N[Arg(Me)][Aib]TRQR[Cha]-NH2 [Ac-[D-Pro24, Iva25, Pya(4)26, Cha27,36, Aib28,31, Arg(Me)30]-PYY(23-36)]
